According to patent US20040229298A1:
Several values for one entry are separate records, joined by “and”; a condition that tells them apart may be missing. Equal values may be shown once. Ends that are not written are not given here.

How the values were obtained:
[1] = biological target: GST-TIP1 PDZ domain (human); assay: G assay ELISA, E6 PL peptide titrated on constant GST-PDZ
[2] = biological target: GST-APXL1 PDZ domain 1 (human); assay: G assay ELISA, 10 uM biotin peptide on anti-GST-captured GST-PDZ
[3] = biological target: GST-CARD14 PDZ domain 1 (human); assay: as above
[4] = biological target: GST-CASK PDZ domain 1 (human); assay: as above
[5] = biological target: GST-DLG1 PDZ domain 1 (human); assay: as above
[6] = biological target: GST-FLJ00011 PDZ domain 1 (human); assay: as above
[7] = biological target: GST-GTPase PDZ domain 1 (human); assay: as above
[8] = biological target: GST-INADL PDZ domain 8 (human); assay: as above
[9] = biological target: GST-KIAA0147 PDZ domain 2 (human); assay: as above
[10] = biological target: GST-KIAA0316 PDZ domain 1 (human); assay: as above
[11] = biological target: GST-KIAA0380 PDZ domain 1, clone #25.6 (human); assay: as above
[12] = biological target: GST-KIAA0545 PDZ domain 1 (human); assay: as above
[13] = biological target: GST-KIAA1634 PDZ domain 5 (human); assay: as above
[14] = biological target: GST-LIM-RIL PDZ domain 1 (human); assay: as above
[15] = biological target: GST-MAGI 1 PDZ domain 3 (human); assay: as above
[16] = biological target: GST-MUPP1 PDZ domain 13 (human); assay: as above
[17] = biological target: GST-NeDLG PDZ domain 2 (human); assay: as above
[18] = biological target: GST-Numb BP PDZ domain 1 (human); assay: as above
[19] = biological target: GST-PAR3 PDZ domain 3, clone #182.1 (human); assay: as above
[20] = biological target: GST-RGS12 PDZ domain 1 (human); assay: as above
[21] = biological target: GST-SITAC-18 PDZ domain 1 (human); assay: as above
[22] = biological target: GST-Shank 1 PDZ domain 1 (human); assay: as above
[23] = biological target: GST-Shroom PDZ domain 1 (human); assay: as above
[24] = biological target: GST-TIAM 2 PDZ domain 1 (human); assay: as above
[25] = biological target: GST-X-11 beta PDZ domain 1 (human); assay: as above
[26] = biological target: GST-ZO-1 PDZ domain 1 (human); assay: as above
[27] = biological target: GST-ZO-2 PDZ domain 1 (human); assay: as above
[28] = biological target: GST-ZO-2 PDZ domain 2 (human); assay: as above

Binder: WTGRCMSCCRSSRTRRETQL (not fully specified; cysteine pairing not given here) [HPV16 E6 C-terminal PDZ ligand peptide (20 mer, biotinylated), P03126 139-158]
- EC50 [1]: 750 nM
- Ave OD [2]: 0.461 A450 nm
- OD S/N (ratio to GST only well) [2]: 3.14
- Ave OD [3]: 0.342 A450 nm
- OD S/N (ratio to GST only well) [3]: 1.52
- Ave OD [4]: 0.36 A450 nm
- OD S/N (ratio to GST only well) [4]: 1.15
- Ave OD [5]: 0.391 A450 nm
- OD S/N (ratio to GST only well) [5]: 2.98
- Ave OD [6]: 0.423 A450 nm
- OD S/N (ratio to GST only well) [6]: 2.9
- Ave OD [7]: 0.35 A450 nm
- OD S/N (ratio to GST only well) [7]: 1.12
- Ave OD [8]: 0.388 A450 nm
- OD S/N (ratio to GST only well) [8]: 1.58
- Ave OD [9]: 0.374 A450 nm
- OD S/N (ratio to GST only well) [9]: 2.46
- Ave OD [10]: 0.343 A450 nm
- OD S/N (ratio to GST only well) [10]: 2.34
- Ave OD [11]: 0.376 A450 nm
- OD S/N (ratio to GST only well) [11]: 1.95
- Ave OD [12]: 0.44 A450 nm
- OD S/N (ratio to GST only well) [12]: 3.96
- Ave OD [13]: 0.403 A450 nm
- OD S/N (ratio to GST only well) [13]: 2.07
- Ave OD [14]: 0.449 A450 nm
- OD S/N (ratio to GST only well) [14]: 1.6
- Ave OD [15]: 0.354 A450 nm
- OD S/N (ratio to GST only well) [15]: 1.46
- Ave OD [16]: 0.435 A450 nm and 0.411 A450 nm
- OD S/N (ratio to GST only well) [16]: 1.56 and 1.75
- Ave OD [17]: 0.425 A450 nm
- OD S/N (ratio to GST only well) [17]: 2.2
- Ave OD [18]: 0.352 A450 nm
- OD S/N (ratio to GST only well) [18]: 3.17
- Ave OD [19]: 0.445 A450 nm
- OD S/N (ratio to GST only well) [19]: 2.07
- Ave OD [20]: 0.429 A450 nm
- OD S/N (ratio to GST only well) [20]: 3.96
- Ave OD [21]: 0.398 A450 nm
- OD S/N (ratio to GST only well) [21]: 1.63
- Ave OD [22]: 0.385 A450 nm
- OD S/N (ratio to GST only well) [22]: 1.71
- Ave OD [23]: 0.361 A450 nm
- OD S/N (ratio to GST only well) [23]: 3.25
- Ave OD [24]: 0.356 A450 nm
- OD S/N (ratio to GST only well) [24]: 2.05
- Ave OD [25]: 0.352 A450 nm
- OD S/N (ratio to GST only well) [25]: 2.02
- Ave OD [26]: 0.412 A450 nm
- OD S/N (ratio to GST only well) [26]: 1.83
- Ave OD [27]: 0.342 A450 nm
- OD S/N (ratio to GST only well) [27]: 2.11
- Ave OD [28]: 0.356 A450 nm
- OD S/N (ratio to GST only well) [28]: 2.15
